Reference: article PMC10951424, “Fibroblast-specific PRMT5 deficiency suppresses cardiac fibrosis and left ventricular dysfunction in male mice” (Nature Communications, 2024)
Blank lines part the entries; values can stand above or below the binder they belong to.

Molecular target: T1, His-tag fusion human PRMT5 protein (human, UniProt O14744 1-637)
T1 construct: Protein arginine methyltransferase 5 (PRMT5), human; also called His-tagged PRMT5; his-tagged PRMT5; source: E. coli BL21DE3, recombinant; not shown: His-tag, N-terminal, kept
Test: pull-down; GST fusion proteins immobilized on glutathione-Sepharose 4B beads, mixed with His-tag fusion human PRMT5; 4 °C, 2 h; beads washed four times; western blot with anti-His-tag mAb
Conditions: both partners purified

T1 sequence (O14744 whole entry, the tested form may be a part): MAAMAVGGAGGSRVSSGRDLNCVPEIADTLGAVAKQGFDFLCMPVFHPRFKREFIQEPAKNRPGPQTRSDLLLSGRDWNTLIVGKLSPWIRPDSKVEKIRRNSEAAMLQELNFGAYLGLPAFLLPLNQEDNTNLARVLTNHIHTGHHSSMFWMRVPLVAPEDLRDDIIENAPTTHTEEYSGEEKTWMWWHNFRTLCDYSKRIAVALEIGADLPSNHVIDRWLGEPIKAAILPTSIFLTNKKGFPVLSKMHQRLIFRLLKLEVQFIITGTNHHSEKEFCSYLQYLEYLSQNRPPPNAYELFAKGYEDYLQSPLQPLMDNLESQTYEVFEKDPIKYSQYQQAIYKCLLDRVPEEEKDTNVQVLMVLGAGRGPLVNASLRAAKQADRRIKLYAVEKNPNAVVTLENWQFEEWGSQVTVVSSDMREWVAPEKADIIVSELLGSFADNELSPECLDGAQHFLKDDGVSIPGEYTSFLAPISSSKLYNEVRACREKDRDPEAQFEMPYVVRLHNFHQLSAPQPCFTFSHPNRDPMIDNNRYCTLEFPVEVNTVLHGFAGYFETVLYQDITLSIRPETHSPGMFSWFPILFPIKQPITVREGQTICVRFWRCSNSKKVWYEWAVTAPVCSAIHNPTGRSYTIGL

binding result: binds
B1: recombinant full-length GST-Smad3 (natural protein, human, UniProt P84022 1-425, looked up)
chain: MSSILPFTPPIVKRLLGWKKGEQNGQEEKWCEKAVKSLVKKLKKTGQLDELEKAITTQNVNTKCITIPRSLDGRLQVSHRKGLPHVIYCRLWRWPDLHSHHELRAMELCEFAFNMKKDEVCVNPYHYQRVETPVLPPVLVPRHTEIPAEFPPLDDYSHSIPENTNFPAGIEPQSNIPETPPPGYLSEDGETSDHQMNHSMDAGSPNLSPNPMSPAHNNLDLQPVTYCEPAFWCSISYYELNQRVGETFHASQPSMTVDGFTDPSNSERFCLGLLSNVNRNAAVELTRRHIGRGVRLYYIGGEVFAECLSDSAIFVQSPNCNQRYGWHPATVCKIPPGCNLKIFNNQEFAALLAQSVNQGFEAVYQLTRMCTIRMSFVKGWGAEYRRQTVTSTPCWIELHLNGPLQWLDKVLTQMGSPSIRCSSVS
notes: Smad3, full length; the only Smad3 cDNA named is the pCMV Flag hSmad3 vector (human); The methods tell the cloning into pGEX6P1 only for the deletion mutants; the full-length GST construct is not described; also called GST-tagged Smad3; source: E. coli BL21DE3, recombinant, immobilized on glutathione-Sepharose 4B beads

binding result: binds
B2: GST-Smad3 deletion mutant aa 225-425 (domain or fragment)
chain: not shown
notes: PCR product cloned into pGEX6P1 (BamHI, XhoI); cDNA from the pCMV Flag hSmad3 vector (human); source: E. coli BL21DE3, recombinant, immobilized on glutathione-Sepharose 4B beads
